In patent US20030022315A1 one finds Factor of Transdominance (β-galactosidase activity with against without the deletion mutant) data, which are given here for one molecule.

Experiment [1] addresses full-length class D TetR (Escherichia coli) (UniProt P0ACT4).
Experiment [2] has as its target T1, full-length class E TetR (Escherichia coli) (UniProt P21337).
T1 sequence: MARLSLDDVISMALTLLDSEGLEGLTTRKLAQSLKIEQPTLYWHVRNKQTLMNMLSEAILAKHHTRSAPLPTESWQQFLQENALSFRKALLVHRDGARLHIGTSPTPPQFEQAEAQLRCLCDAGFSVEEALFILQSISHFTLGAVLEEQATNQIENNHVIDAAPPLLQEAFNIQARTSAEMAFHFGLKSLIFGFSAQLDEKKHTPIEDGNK

Experiment [3] addresses T2, full-length class C TetR (Escherichia coli) (UniProt P03039).
T2 sequence: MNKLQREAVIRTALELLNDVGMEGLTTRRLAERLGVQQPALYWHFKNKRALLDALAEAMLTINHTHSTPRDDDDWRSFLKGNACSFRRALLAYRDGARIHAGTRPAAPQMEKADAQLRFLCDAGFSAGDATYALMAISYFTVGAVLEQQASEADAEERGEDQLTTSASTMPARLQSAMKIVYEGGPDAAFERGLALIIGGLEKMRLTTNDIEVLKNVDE

Experiment [4] has as its target full-length class B TetR (wild-type, Tn10-encoded) (Tn10-encoded (organism not stated)).

B1: deletion mutant of the Tn10-encoded class B TetR (Δ26-53) (protein)
chain: MSRLDKSKVINSALELLNEVGIEGLALAIEMLDRHHTHFCPLEGESWQDFLRNKAKSFRCALLSHRDGAKVHLGTRPTEKQYETLENQLAFLCQQGFSLENALYALSAVGHFTLGCVLEDQEHQVAKEERETPTTDSMPPLLRQAIELFDHQGAEPAFLFGLELIICGLEKQLKCESGS
In the case of B1, the Factor of Transdominance (β-galactosidase activity with against without the deletion mutant) in experiment [1] turned out to be 1.1 fold; in experiment [2], 1 fold; in experiment [3], 2 fold; in experiment [4], 22 fold.
